Measurements from the DeepSol protein solubility set.

Test: soluble on expression in E. coli; label from the status in PepcDB or PDB records

Sequence | soluble on expression in E. coli
MSLDVSDDADRLQTLLYSSYSADVVRQLERPLLDDGVPLMRMAASAVARVTLSLLDDEDLDVEDARVTVLAGAGDNGGDGLYAGAELAREGAQVTAVAVGRSLHEDAFREFVRAGGRVLVLDPAADIPGCTSGFSAGEAGERLQAAVECARGAHVVLDAMTGIGVAGALRGVAGTLASSLGMDGVLPDKPALPNNDPSADLPLVVAVDAPSGVGVDDGSLPGPYIPADVTVTFGAMKPCAMVPPASYACGRITLVDFGFDVDDAVPFAEMTDGDFVADSVRLPSLADGKYSRGVVGLVTGSARYPGAAVLSARAAACANVGMVRYLGPQRAQDMILAVLPEAVLGKGRVQSWVVGSGVPAEGDVASGDDMQRATIAALLDHYALEDGDGSRNERAEGMPPIVVDAGALDLLPCHVVPQVVITPHAGELAALLNRLDADMADVVSRQWVEARPLRAALRAHELTGATVLLKGAVTIVVGADGDGNTRIILSGRAPAWMATAGSGDVLAGVLGALLAQQDDMLSDDPALVPEVAAAAAYMHGLAGAMASGSEQRGWHRPHLYGHAGKTPASAIGHPIVAGDVVAAVPRAFGELLREGHHHHHH | soluble
MSLDVSLKLKGIDGALEDNVKAYLSSIPEKDYSTSLRFQARLDQSITEALNALGYYHAKISYSISEGNDELIVNIHKGLPVKIKVMDVVISGEAKEDEEFTNLIAKSPLKVGRILNQGEYDSLKSGIRNLALQRGYFNGDFKLNKLEVIPELNEANVRLHYDSGIRYHFGPVEITGSQIWENRVESMRPFEIGEPYLVSDVGEYNQNLSNTDWFSSVFVEPDLSKLEDGRELPIKVSLAPAAKNQIETGIGYSTDTGVRGTLKWKKPWVSARGHSFNTALSLSKPEQTITAGYKIPLDDVLREYYQLQFGLKHLDNRDTESLESNLAVERHWLTDGGWHKTVYVRHLYENFSQGLQDDGVQFVLPGATFSRTRVRGGSMPMWGDKQSVTVEYGDPALLSETRVLRLLGRSSWIRGIGENHRGLFRLEGGANITEEFEKLSPSLRFFAGGDNNIRGYGYESISPVDESGALTGAKYILSSTLEYQYRVYGNWWAATFYDIGDAFNDTPEWKSGAGVGIRWASPVGPVSFDFAWGLDEKPNNEFRIHFSLGPELEGHHHHHH | not soluble
MSLDVSVSATGHDNVTARHDSTLELTTDDFLTPAGDCILGIDADCSPAAFSDAFVAACQDAAATITLVLDTPQHRDEITGSGHPDLTFTNDRSMVGRTSTYVDDRTVFVDADKAAADVDREMVAALADGAPLTATLRVDEGHHHHHH | soluble
MSLEDYCTPGAFELERLFWKGSPQYTHVNEVWPKLYIGDEATALDRYRLQKAGFTHVLNAAHGRWNVDTGPDYYRDMDIQYHGVEADDLPTFDLSVFFYPAAAFIDRALSDDHSRKRDVRVRNLCRKAGPLGLLVAEGKGKILVHCVMGRSRSATLVLAYLMIHKDMTLVDAIQQVAKNRCVLPNRGFLKQLRELDKQLVQQRRRSEGHHHHHH | soluble
MSLEGDRGQDDVLRILVATDTHLGYKADDSERGGDSFETFQEILEIGRNLKVDFLLHGGDLFDENRPSRATLYRTFCLLRKFCFGDGAVSFEVLEGAAESRGRGEGFRFGLNYLDENINVCMPIFAMHGNHDDPGEQSHLSPLDLLEAAHLINYFGRCDATDEVTIKPILIKKGQTKVAIYGVGWIRDARLHRAFNNGKVRFLVPSASAGEDSVDDWFNIMVVHQNMYKGAFGGQPAKNCIHEQMLPDFLDLAIWGHEHDCHLDLRDAPQGTFRVLQPGSSIATSLVAGEALPKHVFLLEIRGENYRVTPQRLRTVRPLLFEDVALSDLLHSRPPLAPALSGVRTPQSRVSNSGAGRNLQTAQPAEDRDVWQLLTDAVEELLSRFAREEGHHHHHH | soluble
MSLEGEVEKTQAKGSIILATTTSTSDSGLLDYLLPEFTKDTGIEAKVVAVGTGQALQMGKDGEADVLLVHSKAAEEEFVAAGDGLERKDVMYNDFILVGPANDPLKLKQELPNDIVGALKKISEQKFKFISRGDDSGTHKKELALWTEVGITPEGDYYVSAGRGMGDVLKMADEMQAYTIADRGTYLSMKADLGLDIIVEKDTNLFNQYGVIPVNPDKNENINAEGAKAFEEWILSEKAQSLIGEYGKEKYGAPLFTPNAAKEGHHHHHH | soluble
MSLEGFIEGSSLTVLNRNFYFNRDNRDSTAPTYNSGKGNTNGYSEAWAHAIISKFNSGFTQGTVGFGVDAFAMIGLKLDTGDGRNGGRSSFDVLPVDNKGEARDEYTKVGGAAKVRLFDTIVKVGDVFPSTPVVASGDSRLLPESFRGVTVENTSIQGLTLQGGRLHAMSQPVSSNLNDNFVTFYGGPVNSPWIGYGGGDYSINDNWTVSVYASQLKDVWNQYYAGTSVVYPLSDDLALIGGFNYYKAVDEGKKRLGEFDNNIWSAKVGVRYGAHTLALSHQRNNGDDDFDYLRQSDSIFVDNSIQYSDFNSPKERSWMLRYDLNFTSYGIPGLTFMTRYARGSGADYSNANQFYMRTDDNGNPLDNQKRWERDVEVKYVVQTGPAKDLSFRLRQATTRATAFESDLDETRVIIEYPLSILEGHHHHHH | soluble
MSLEITKIEVHVIGPEDKRYTWSEDIEEVYQSNTLIKIFTDEDIVGEAAIWNATYFEYDKYTAESLRHLLPILIGKDPLNREEILYDIRPRVFPQPPGAQALIDNALWDILGKKCKSPIYKILGGRRDKIKSYASTVMYNTIDEYLKVVDEMKEQGFSAVKFHTYCIPKKDLELAEAARKAFPSMSFMIDAENNYDLESSLIVAKKLEKLEFTWFEAPLPDYDFAGYKKITDSVGIKVIPSGNWVVDLQRFSEAIHNKVWSATRTDMAMMGGITNCKKAIDLSSAGGLDCEIMSWGYTLVSAANLHLMLSSDNCSYYEQPLPYNNFEFGMKDVLRTSQDGYMYAPTKPGLGMEIDWDKMMSKNIYSITCEEGKKISLVHSEGHHHHHH | soluble
MSLEKKDNVFTFGNALSLYYKDYETPLIINTDDINQFKRSDKFYVLGNEFNAEIKYPYFMSSLYCIESGDIVMVYNAVELIQRPRLIIKALMALRKKYGFSKLIYLPGIGDPYIIPVLVYAGADLFDDTYIKEESINNIKYTMMGKTKSSDNNINDNLKFANDIISLLRSSIKTGTLREFVEKFQYSSRAIEMLRIIDNDYFSDYSMVFPVYTPYIKANTIESLNRPDIVSYRNYIKNDYSKPDVENLLILPCSAKKPYSKSKSHKKILSRIEKYRKYIHELIVTSPVGLVPRELESMYPAAFYDIPVIGLWYEDEKKMINDLLKSYLSKNRYKNIIAYIDEDLNFIKSSGNIILIEGNILSEEKLSELESTLRDLTINSPKMDHLFNYKSMLSYQFGTWIKDYLDDIKISRSYNMDMVTRNGRALFVFNEKLGRFTINRNGAGIFLNAGKKIVYIDDFKPTSYVFNAGIKDATDDIKPGDEVIIVHNNEIRGVGTALISYRAMIDLDHGAGVKVREGHHHHHH | soluble
MSLEKKFVIWGRNPIIEALRAGRNLEKIYVAHDSHPPKELLELAKKRGVKVQRISRKKVEELAGTKKTQGVVALLSPVNYVSPHELFKECIEKKSFFIVIDHITDPQNVGNLLRTCEVLGGVGALISKDRTSPINETVVKASSGAVFHLKISKVSSLSRELKNFQKMGGWVFAVEKGGKDIREVDIPLPVALVLGSEDKGVSKSVLDISDQIVTIPMKGKVTSLNVGSAGAIAMWETAKKILEGHHHHHH | soluble
MSLEKKMEEKKKIKLIATDMDGTLVNDAKEVPASFAPWVLSHPDQQMVIASGRPYYTNEELFKEIKDHLIFIGDNGGLIYQQGQVLAKAGITAEEAKFCLDLFKDEPLANPILCGASQAICHDPKGDRNFLKQLDTYYIKRRYVEDLEAEVNSDEIIKFTVYIEGGAAESIYRQLPEMPGNLSAVLAGPEWIDIVNKDANKGAAVKKIADLKGIKQDEILAFGDYLNDLTMLEAAGTSYAMVNGHPDLKKIADHIAPSNNDEGVMQILRKLFDEGHHHHHH | soluble
MSLEKKVVKFFTVDNMEKEEAYLNEMAQNGWFFQKYKSFRYHFKQGEPAKYSYAIDFKENEGDEDAYKTLFEDAGWETVFSYPVLNGNWMYFRKAVAPGETEEAIFTDETSLIQLYKNIRKREGHHHHHH | soluble
MSLEKLLRYLNDNDADKWQKNREKLDDETKAYYAEDLSLMDVLNDLWNGQSEQAATLYFGCYEKAAQNNFPSICEGEKIPLSQIRDKADQSIINLLEASKDKIPFSRALLDSIHATEYPVDSAMLQRLQNIREVALLEGMLKAPTPIIYQTYVKEYPNGKFIAQVNASENVRLYQLVKTAPTPANFKAFFEDPEMQKYYQDRGPRPYLAEVRTLYDDFLFQRIDSLKKEGNATAIRQIIDDYKNTPYLSTGARTHLNDLEYLSEKADFELLKPAIVNSESLGLLQEFLKTHKYKEFRDQAKNLRAPFILQAIVSTPTTVKYYTQGRLIKCCETDSTGNITTSYTYNDKGQLTTTLSVTEKNGQPINEVQTSRLYDPQGHCIFEVKTNPKTKTDFYRRARRIGIDGSIESDSLKYMDGRYTVSSYNKQGLLTETKEYNKNGEMEGYTVNKYDDKGRMTESQHQNMLFVNSPNQILSQKELYEYDKYGYLTRIVYQRIFGNSQKTSGCLTCLYDEYGNRIDGDSYYEYDNTGQWICRTSYDNPQQVERIQYIYKEGHHHHHH | soluble
MSLELDAVSRSYKRWAPIYDFSFGKVSESPRRRTAAHVNARGGRVLEVGVGTGLSLPLYSHRVAVTGIDFSHEMLARAREKVEEMGLEPVKELRQMDARELDFPDETFDTVVAMFLVSVVPEPERVVSEMARVCRKGGEVVIVNHFARDKGPLAAVEKALARFENTLGWHSDFAIERVTADPRLEVVEQTPMSPGGLFTFLRFQRREGHHHHHH | soluble
MSLELRPLHPLDGLLKFAGLARSTFYYQQKVLLVDDKYAGLKDLIQATFYEHKGRYGYRRITAALRRAGHLVNHKTVQKLMGQLGLKSLIRVKKYRSYKGETGKAAPNLLKRDFKAQYLNQKWATDVTEFKVGGQKLYLSPIMDLYSGEIISYAIARRPLYSMVDEMLEGAFKRLGPHEKPILHSDQGWQYRMPIYQRLLNENSIAASMSRKGNCYDNAAIESFFSTLKSEFFYLNKFNDLDELQAGIEEYIEYYNHSRIKLKLNGLSPVEYRMQAAKAAEGHHHHHH | not soluble
MSLELYAASYILPIASPPIPGGAVAVHDGCIVETGTLAELRSRHSGPVHDFPGCAILPGLVNAHTHLELTHFPSWKIRKGIDYSPRTYVDWIIQVIKIRRALSPQELELSVREGLRICLEAGTTAIGEILTDRSLIPLYADSGLRGRLLFEAIGHDPVRNAQLVEELDAAIASFSGGSFLPGISPHAPHTVAEHLHQDVYRLAYERNVPRVIHLAESREESDFFFDSSGKIAEFLYPHVRWESYLPAPRRTTATAWLDGLGVLNGTISAVHCVHLTPSDAEILAKRGVGVVLCPRSNDKLAVGRAPVVLLKRLGVPLALGTDSLASNDSLSLWDEMRYLLDTFPGIFTPTEALSMTTIGSARQLALADRTGSLDKGKHADFLVMKLPGRNGSGEALHEALIHSGEILQVFLAGNLVVSREAFSEGHHHHHH | soluble
MSLEMLGIDVVIPDISYLIERADRVKAIFLTHGHDENIGGVFYLLNKLSVPVYGTKLTLALLREKLKQYGHNRKTDLREIHSKSVITFQSTKVSFFRTIHSIPDSVGVSFKTSLGSIVSAGDFKFDQTPALNQTCDIGEIAKIGNSGVLALLSDSANVERPGYTPSEAAVSGEISDALYNSQNRVIIAVFASNINRIQQVIHAAAQNGRKIAVAGKNLQSVLQLARKLGYIEADDELFISVQDVKKYPKREVAIITAGSQGEPLAALTRMANKAHKQLNIEEGDTVVIASTPIPGQELIYSKTVDLLARAGAQVIFAQKRVHVSGHGSQEELKLMINLLKPKYLIPVNGEYRMQKAHSKIAEETGMKRSDIFLIEKGDVVEFRGQNVKIGDKVPYGNILIDGLGVGDIGNIVLRDRRLLSQDGILEGHHHHHH | not soluble
MSLEPTAPSLTEEDLTEVKKDALENLRVYLCEKIIAERHFDHLRAKKILSREDTEEISCRTSSRKRAGKMLDYLQENPKGLDTLVESIRREKTQNFLIQKITDEVLKLRNIKLEHLKGLKCSSCEPFPDGATNNLSRSNSDESNFSEKLRASTVMYHPEGESSTTPFFSTNSSLNLPVLEVGRTENTIFSSTTLPRPGDPGAPPLPPDLQLEEEGTCANSSEMFLPLRSRTVSREGHHHHHH | not soluble
